Experiments:
[1] = system: adiposome a; assay: Recruitment of resident proteins, functional proteins and apolipoprotein to adiposomes (SDS-PAGE, silver staining); type: binding
Protocol: a1, 5 μg SMT3-Perilipin-2 proteins, 25 ng Ulp1 and 500 adiposome a prepared in Example 1 were mixed to obtain 1000 mixed system.
a2, After the step a1 was completed, a mixed system was obtained by incubating at room temperature for 1 h (the practical operation may be performed on ice).
a3, After the step a2 was completed, the mixed system was taken to centrifuge at 20000 g for 5 min, and the liquid phase system presented two layers (the upper layer was adiposomes). The lower solution was drawn out and the upper layer was kept.
a4, The upper layer after the step a3 was resuspended into 1000 buffer B and centrifuged at 20000 g for 5 min, and the liquid phase system presented two layers (the upper layer was adiposomes). The lower solution was drawn out and the upper layer was kept.
a5, The upper layer after the step a4 was resuspended into 1000 buffer B and centrifuged at 20000 g for 5 min, and the liquid phase system presented two layers. The lower solution was drawn out and the upper layer was kept (i.e., adiposomes).
5 μg SMT3-Perilipin-2 proteins, adiposomes obtained in the step a5 and the lower solution drawn in the step a3 were all subjected to SDS-PAGE, followed by silver staining detection.
b1, 5 μg MLDS proteins and 50 μl adiposome a prepared in Example 1 were mixed to obtain 1000 mixed system.
b2, After the step b1 was completed, a mixed system was obtained by incubating at room temperature for 1 h (the practical operation may be performed on ice).
b3, After the step b2 was completed, the mixed system was taken to centrifuge at 20000 g for 5 min, and the liquid phase system presented two layers (the upper layer was adiposomes). The lower solution was drawn out and the upper layer was kept.
b4, The upper layer after the step b3 was resuspended into 1000 buffer B and centrifuged at 20000 g for 5 min, and the liquid phase system presented two layers (the upper layer was adiposomes). The lower solution was drawn out and the upper layer was kept.
b5, The upper layer after the step b4 was resuspended into 1000 buffer B and centrifuged at 20000 g for 5 min, and the liquid phase system presented two layers. The lower solution was drawn out and the upper layer was kept (i.e., adiposomes).
5 μg MLDS proteins, adiposomes obtained in the step b5 and the lower solution drawn in the step b3 were all subjected to SDS-PAGE, followed by silver staining detection.
The MLDS proteins in the step (2) were replaced with MDT-28 proteins, without other changes in other steps. The results were seen from lanes 4, 5 and 6 in FIG. 6 (lane 4 was total proteins (MDT-28 proteins), lane 5 was adiposome recruited proteins, and lane 6 was solution proteins). […] The adiposomes recruited with MDT-28 proteins were named as artificial lipid droplet MDT-28.
The MLDS proteins in the step (2) were replaced with Bovine serum albumin, without other changes in other steps. The results were seen from lanes 11, 12 and 13 in FIG. 6 (lane 11 was total proteins (Bovine serum albumin), lane 12 was adiposome recruited proteins, and lane 13 was solution proteins).
SMT3-Perilipin-2 proteins in the (1) of step 1 were replaced with SMT3-ATGL proteins, and 50 μl adiposome a was replaced with 30 μl adiposome a, without other changes in other steps, to obtain adiposomes recruited with ATGL.
5 μg MLDS proteins in the (2) of step 1 were replaced with 9 μg Apo A-I, without other changes in other steps, to obtain adiposomes recruited with Apo A-I. The results were seen from B in FIG. 10 (lane 1 was adiposome recruited proteins, lane 2 was solution proteins, and lane 3 was total proteins (Apo A-I)). […] The adiposome recruited with Apo A-I was named as artificial lipoprotein Apo A-I.

[2] = system: adiposome a; assay: Determination of protein saturation degree on adiposomes; type: binding; conditions: Western blot
Protocol: Determination of protein saturation degree: SMT3-Perilipin-2 proteins, 25 ng Ulp1 and 30 μl adiposome a prepared in Example 1 were mixed to obtain 50 μl mixed system, and the concentrations of SMT3-Perilipin-2 proteins in the mixed system were 0.015 μg/μl, 0.030 μg/μl, 0.056 μg/μl, 0.080 μg/μl, 0.101 μg/μl, 0.137 μg/μl, 0.166 μg/μl or 0.191 μg/μl. Then, artificial lipid droplets were obtained according to the above steps a2 to a5, and were subjected to SDS-PAGE, followed by staining with colloid blue, or were subjected to Western blot detection using Perilipin-2 antibody as primary antibody. The results were seen from C in FIG. 7 (in which a was the result of colloid blue staining, b was the result of Western blot detection).
Determination of protein saturation degree: SMT3-ATGL proteins, and 500 adiposome a prepared in Example 1 were mixed to obtain 1000 mixed system, and the concentrations of SMT3-ATGL proteins in the mixed system were 0.091 μg/μl, 0.132 μg/μl, 0.171 μg/μl, 0.209 μg/μl, 0.244 μg/μl, 0.278 μg/μl or 0.310 μg/μl. Then artificial lipid droplets were obtained according to the a2 to a5 of step 1, and were subjected to SDS-PAGE, followed by silver staining, or were subjected to Western blot detection using ATGL antibody (Cell Signaling Technology, Danvers, Mass., the product item: 2138) as primary antibody. […]

[3] = incubating at room temperature for 1 h, SDS-PAGE, silver staining

Bovine serum albumin: purchased from Sigma, product item A4612; control protein [reference compound]
recruitment to adiposome a (in words) [1, 3]: no Bovine serum albumin was recruited

Apo A-I: apolipoprotein A1 from human, purified per Peitsch et al. 1989
proteins recruited to adiposome a [1, 3]: about 50%

B1: ATGL: functional protein adipose triacylglycerol lipase, SEQ ID NO: 8 (protein)
chain: MFPREKTWNISFAGCGFLGVYYVGVASCLREHAPFLVANATHIYGASAGALTATALVTGVCLGEAGAKFIEVSKEARKRFLGPLHPSFNLVKIIRSFLLKVLPADSHEHASGRLGISLTRVSDGENVIISHFNSKDELIQANVCSGFIPVYCGLIPPSLQGVRYVDGGISDNLPLYELKNTITVSPFSGESDICPQDSSTNIHELRVTNTSIQFNLRNLYRLSKALFPPEPLVLREMCKQGYRDGLRFLQRNGLLNRPNPLLALPPARPHGPEDKDQAVESAQAEDYSQLPGEDHILEHLPARLNEALLEACVEPTDLLTTLSNMLPVRLATAMMVPYTLPLESALSFTIRLLEWLPDVPEDIRWMKEQTGSICQYLVMRAKRKLGRHLPSRLPEQVELRRVQSLPSVPLSCAAYREALPGWMRNNLSLGDALAKWEECQRQLLLGLFCTNVAFPPEALRMRAPADPAPAPADPASPQHQLAGPAPLLSTPAPEARPVIGALGL
modifications: ATGL protein
fraction of protein recruited to adiposome a ([1]; SMT3-ATGL proteins, 30 μl adiposome a, incubating at normal temperature or 4° C.): about ⅓
protein concentration in the reaction system at which recruitment on adiposomes reached saturation ([2]; 0.091-0.310 μg/μl SMT3-ATGL proteins, silver staining): 0.209 µg/µL

B2: MLDS proteins: lipid droplet resident protein of oleaginous bacterium RHA1, SEQ ID NO: 2 (protein)
chain: MTDQKTIDSVKTSLYAAVGAGDVVVQAVADVVAQVRSRAESTQGDVEERVGGAKERIAGLQEEVTEGVENLRDRLAGLPSELPEELAELREKFTADELRKVAEAYLKVASDLYTSLAERGEDTVERIRKQPVVEEGIGRAETAFGDAVELTEEALGTVARQTRAVGEQAAKLAGRASGRISDTAEGLGEAIADAGDEAALKVLDLGDQAEEASKDAADRVTATAADVQARADKAAPAKHAAPAKKAAPAKAAATPAPAPAKKAAAPAKKAAPAKKA
modifications: MLDS protein
proteins recruited to adiposome a [1, 3]: about 80%

B3: MDT-28 proteins: nematode lipid droplet resident protein, SEQ ID NO: 4 (protein)
chain: MTDVEQPVSVEDQQAQAQSYYDQVLGNAYVQTAINAYTKTKEFHPLLNSTLNSAEEKVSTVGNYAAQKAYDGYNSYYVKPKNTAYEAVSYGTERAKTAVESGKQAAIVGGTFGIGAAVVLTQFSLALSAGGAALVLEQVDSAKKLGSSAISTIKEAELAVEHRIFSALHQAQRIAMVPVEKITENTNSLLDILDGAVQKGLNIEVPPSVNLTIGQRVKNLASLIVQGVSNKLFKAHDHVIDPINERARNYLEQLSQSFVLLDIVREKKTWVIEKSNELSTSVFDFKKTLEEEAQKYKVAPEEMLMKHIQSTSEQLSTQLQSLREKGQNVFGDGTKIDSTIDYLENLKKNFTDAEDVYKVRDEVLNEGRQRIAELSTWTTSLLIISAEWQFEPEDLLIEELYFDAPPPVRTRNLYRNRA
modifications: MDT-28 protein
proteins recruited to adiposome a [1, 3]: about 90%

B4: Perilipin-2 proteins: lipid droplet resident protein of mammals, SEQ ID NO: 6, expressed with SMT3 tag cleaved by Ulp1 (protein)
chain: MASVAVDPQPSVVTRVVNLPLVSSTYDLMSSAYLSTKDQYPYLKSVCEMAENGVKTITSVAMTSALPIIQKLEPQIAVANTYACKGLDRIEERLPILNQPSTQIVANAKGAVTGAKDAVTTTVTGAKDSVASTITGVMDKTKGAVTGSVEKTKSVVSGSINTVLGSRMMQLVSSGVENALTKSELLVEQYLPLTEEELEKEAKKVEGFDLVQKPSYYVRLGSLSTKLHSRAYQQALSRVKEAKQKSQQTISQLHSTVHLIEFARKNVYSANQKIQDAQDKLYLSWVEWKRSIGYDDTDESHCAEHIESRTLAIARNLTQQLQTTCHTLLSNIQGVPQNIQDQAKHMGVMAGDIYSVFRNAASFKEVSDSLLTSSKGQLQKMKESLDDVMDYLVNNTPLNWLVGPFYPQLTESQNAQDQGAEMDKSSQETQRSEHKTH
modifications: Perilipin-2 protein
proteins recruited to adiposome a [1, 3]: about 50%
recruitment on adiposomes, saturation (in words) ([2]; 0.015-0.191 μg/μl SMT3-Perilipin-2 proteins, colloid blue staining): saturable

Reference: patent US10987431B2, “Preparation method of adiposomes, and use thereof” (Institute Of Biophysics, Chinese Academy Of Sciences, priority 2015, dated 2021)
